Numbering of substitutions follows the chain as printed. Names and notes keep the numbering of the source.
T1: human 1-27 CD3ε-EpCAM (human)
T1 construct: also called 1-27 CD3-EpCAM comprising the human 27 mer
T1 chain: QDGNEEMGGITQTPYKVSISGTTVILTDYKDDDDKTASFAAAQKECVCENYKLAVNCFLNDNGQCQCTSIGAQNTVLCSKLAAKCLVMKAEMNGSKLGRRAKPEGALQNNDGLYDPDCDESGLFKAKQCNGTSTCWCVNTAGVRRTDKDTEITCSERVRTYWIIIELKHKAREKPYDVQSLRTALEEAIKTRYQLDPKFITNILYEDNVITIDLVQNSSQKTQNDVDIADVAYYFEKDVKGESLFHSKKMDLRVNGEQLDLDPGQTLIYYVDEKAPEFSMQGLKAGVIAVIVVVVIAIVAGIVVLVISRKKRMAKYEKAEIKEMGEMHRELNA

T2: marmoset 1-27 CD3ε-EpCAM (Callithrix jacchus)
T2 construct: also called 1-27 CD3-EpCAM comprising the marmoset 27 mer
T2 chain: T1 chain with G9D, I10T, T13N, I25T

T3: tamarin 1-27 CD3ε-EpCAM (Saguinus oedipus)
T3 construct: also called 1-27 CD3-EpCAM comprising the tamarin 27 mer
T3 chain: T1 chain with G9D, I10T, T13N, I25T

T4: squirrel monkey 1-27 CD3ε-EpCAM (Saimiri sciureus)
T4 construct: also called 1-27 CD3-EpCAM comprising the squirrel monkey 27 mer
T4 chain: T1 chain with M7I, G9D, I10T, T13N, I25T

T5: swine 1-27 CD3ε-EpCAM (Sus scrofa)
T5 construct: negative control; also called 1-27 CD3-EpCAM comprising the swine 27 mer
T5 chain: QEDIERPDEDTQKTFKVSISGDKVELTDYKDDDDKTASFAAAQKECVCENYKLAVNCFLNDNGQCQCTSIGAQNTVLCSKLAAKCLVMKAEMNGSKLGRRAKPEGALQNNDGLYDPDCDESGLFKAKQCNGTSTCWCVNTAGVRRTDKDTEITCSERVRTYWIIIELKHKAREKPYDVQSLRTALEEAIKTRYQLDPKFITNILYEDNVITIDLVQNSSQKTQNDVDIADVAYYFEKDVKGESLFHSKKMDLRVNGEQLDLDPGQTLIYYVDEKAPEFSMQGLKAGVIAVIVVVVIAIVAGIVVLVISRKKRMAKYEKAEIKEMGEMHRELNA

B1: scFv MP 9076-A9 (scFv)
scFv: QVQLVESGGGLVKPGGSLRLSCAASGFTFSDYYMYWVRQAPGKGLEWVAIISDGGYYTYYSDIIKGRFTISRDNAKNNLYLQMNSLRAEDTAVYYCARGFPLLRHGAMDYWGQGTLVTVSSGGGGSGGGGSGGGGSDIQMTQSPSSLSASVGDRVTITCKASQNVDTNVAWYQQKPGQAPKSLIYSASYRYSDVPSRFSGSASGTDFTLTISSVQSEDFATYYCQQYDSYPYTFGGGTKLEIK
notes: crude periplasmic extract from E. coli, His-tagged (His detection); also called PM76A9-HL
B2: scFv MP 9076-B10 (scFv)
scFv: B1 scFv with G16E, N78S, R87K
notes: crude periplasmic extract from E. coli, His-tagged; 610 read as B10; also called MP 9076-610; MP9076-610 (so in the source)
B3: scFv F1-A10 (scFv)
scFv: EVQLLESGGGLVQPGGSLRLSCAASGFTFSDFFMAWVRQAPGRGLEWVSTIVSDGGSTYYRDSVKGRFTISRDNSKNTLYLQMNSLRAEDTAVYYCARRGNSGYYVMDAWGQGTTVTVSSGGGGSGGGGSGGGGSDIQMTQSPSTLSASVGDRVTITCRASSSVTYMHWYQQKPGKAPKLLIYDTSKVASGVPSRFSGSGSGTEFTLTISSLQPDDFATYYCQQWSRNSPYTFGQGTKLEIK
notes: crude periplasmic extract from E. coli, His-tagged; also called PM F1-A10 HL
B4: A2J HLP (scFv)
scFv: EVQLLESGGGLVQPGGSLKLSCAASGFTFNVYAMNWVRQAPGKGLEWVARIRSKYNNYATYYADSVKKRFTISRDDSKNTAYLQMNNLKTEDTAVYYCVRHGNFGNSYLSWWAYWGQGTLVTVSSGGGGSGGGGSGGGGSELVVTQEPSLTVSPGGTVTLTCRSSTGAVTSGYYPNWVQQKPGQAPRGLIGATDMRPSGTPARFSGSLLGGKAALTLSGVQPEDEAEYYCALWYSNRWVFGGGTKLTVL
notes: crude periplasmic preparation; also called VH-VL-P of A2J
B5: E2M HLP (scFv)
scFv: B4 scFv with V31G, K68E, G102R, W112F
notes: crude periplasmic preparation; also called VH-VL-P of E2M

Columns and labels:
human PSMA = molecular target: T6, human PSMA (human, UniProt Q04609 1-750); experiment: Pepscan ELISA, 15-mer peptides of the extracellular domain of human PSMA
T6 construct: whole, on cells; also called prostate-specific membrane antigen
Protocol: These three PSMA BiTE antibodies were subjected to an alternative epitope mapping approach based on peptide scanning (Pepscan). Pepscan uses overlapping peptides of a given protein and analyses antibody binding to immobilized peptides by enzyme-linked immunosorbent assays (ELISAs). The epitope mapping experiments with PSMA BiTE antibodies were performed at the company Pepscan (Lelystad, The Netherlands).
These peptides were coated to ELISA wells in a 384-well plate format. […] To this end 7 ml of crude periplasmic extracts were shipped on dry ice to Pepscan (The Netherlands). Using scFv counterparts in this assay minimized the risk to pick up signals from the second non-PSMA binding specificity of the BiTE antibodies, which may lead to misinterpretation of the PSMA binding epitopes of the target binders. The scFvs were incubated with the peptides and specific binding detected using an anti-His antibody. Binding signals were measured in a 384-well ELISA reader.

1-27 CD3-Fc = molecular target: T7, 1-27 CD3-Fc (human); experiment: ELISA, periplasmic scFv on captured 1-27 CD3-Fc
T7 construct: assigned to this molecule; also called 1-27 CD3ε-Fc; 27 aa huCD3E

human 1-27 CD3ε-EpCAM = molecular target: T1, human 1-27 CD3ε-EpCAM; experiment: FACS, 293-HEK transfectants
marmoset 1-27 CD3ε-EpCAM = molecular target: T2, marmoset 1-27 CD3ε-EpCAM; experiment: FACS, 293-HEK transfectants
tamarin 1-27 CD3ε-EpCAM = molecular target: T3, tamarin 1-27 CD3ε-EpCAM; experiment: FACS, 293-HEK transfectants
[1] = molecular target: T4, squirrel monkey 1-27 CD3ε-EpCAM; experiment: FACS, 293-HEK transfectants
swine 1-27 CD3ε-EpCAM = molecular target: T5, swine 1-27 CD3ε-EpCAM; experiment: FACS, 293-HEK transfectants

T6 sequence (Q04609 whole entry, the tested form may be a part): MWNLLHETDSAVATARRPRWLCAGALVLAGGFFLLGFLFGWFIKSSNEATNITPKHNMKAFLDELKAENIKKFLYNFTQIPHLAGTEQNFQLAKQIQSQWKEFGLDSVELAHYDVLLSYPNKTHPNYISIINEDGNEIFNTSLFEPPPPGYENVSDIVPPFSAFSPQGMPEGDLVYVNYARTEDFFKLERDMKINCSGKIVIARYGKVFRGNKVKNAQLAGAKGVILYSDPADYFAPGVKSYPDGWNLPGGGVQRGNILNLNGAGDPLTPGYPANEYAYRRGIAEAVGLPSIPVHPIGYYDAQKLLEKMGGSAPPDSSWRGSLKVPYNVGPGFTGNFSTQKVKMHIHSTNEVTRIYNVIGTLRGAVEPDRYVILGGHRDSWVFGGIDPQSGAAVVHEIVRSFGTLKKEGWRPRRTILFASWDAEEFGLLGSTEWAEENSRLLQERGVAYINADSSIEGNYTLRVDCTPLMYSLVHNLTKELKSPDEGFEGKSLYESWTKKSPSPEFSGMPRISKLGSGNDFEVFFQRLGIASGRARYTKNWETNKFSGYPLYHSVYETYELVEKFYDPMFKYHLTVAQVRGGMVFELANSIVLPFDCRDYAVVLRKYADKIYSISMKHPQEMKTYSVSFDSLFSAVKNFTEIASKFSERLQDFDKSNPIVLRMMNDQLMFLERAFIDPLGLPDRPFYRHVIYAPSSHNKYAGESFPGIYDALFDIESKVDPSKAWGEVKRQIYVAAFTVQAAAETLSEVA

Row | Binder | binding result (human PSMA) | binding result (1-27 CD3-Fc) | also measured
1 | B1 | binds | – | –
2 | B2 | binds | – | –
3 | B3 | binds | – | –
4 | B4 | – | binds | –
5 | B5 | – | binds | binding result (human 1-27 CD3ε-EpCAM): binds; binding result (marmoset 1-27 CD3ε-EpCAM): binds; binding result (tamarin 1-27 CD3ε-EpCAM): binds; binding result [1]: binds; binding result (swine 1-27 CD3ε-EpCAM): no binding

Source: US20190169310A1 (Amgen, published 2019)
